Positions count from the first letter of the chain named. Numbers in names are those of the source.
B1: Il-DyP4 (Irpex lacteus; W410F) (protein)
chain: SAGNDSLPFENIQGDILVGMKKDKEKFVFFHINNATAFKSVLKTYAPANITSVATIIGPVANQPLAFVNLAFSHAGFGALNVTDDLQDTAFSDGQFKDSPNLGDDTSTWEEAFKGTNVDGVFLIGSNDESITAQYRDDLNAKFGDAWTIVYDLDSAARPGNEKGHEHFGYLDGISNPTIPGFGTPHPGQAVVDPGIIFTGRSKDPVMNRPSWALDGSFLVFRKLKQLVPEFNKYVLDNALQNQAGNLTVEEGAELLGSRMFGRWKSGAPIDLSPDFDDPALGNDIERNNNFNYSHPGSDLATDQTRCPFTAHIRKTNPRDLEGQGLFGDTFHAIRAGTPYGPEVTDYEASSNTTTIDRGLAFVEYQSVIGNGFRFQQQAFANNPRFPFSKGPSIQLGLDPVIGQGSPRETFGLDPRNASESFTVPQVIISNGGEYFFSPSITAIVEKFAA
notes: monomer, model residues 6-450
B2: Il-DyP4 (Irpex lacteus; W294Y) (protein)
chain: B1 chain with W264Y, F380W
notes: monomer, model residues 6-450
B3: Il-DyP4 (Irpex lacteus; W294H) (protein)
chain: B1 chain with W264H, F380W
notes: monomer, model residues 6-450
B4: Il-DyP4 (Irpex lacteus) (protein)
chain: B1 chain with F380W
notes: monomer, model residues 6-450
B5: Il-DyP4 (Irpex lacteus; W410Y) (protein)
chain: B1 chain with F380Y
notes: monomer, model residues 6-450
B6: Il-DyP4 (Irpex lacteus; W294F) (protein)
chain: B1 chain with W264F, F380W
notes: monomer, model residues 6-450
B7: Il-DyP4 (Irpex lacteus; W294R) (protein)
chain: B1 chain with W264R, F380W
notes: monomer, model residues 6-450
B8: Il-DyP4 (Irpex lacteus; W139F) (protein)
chain: B1 chain with W109F, F380W
notes: monomer, model residues 6-450

Legend:
Experiment in all cases: purified protein
Assay type in all cases: biochemical, Irpex lacteus
Details in all cases: 0.1 mM H2O2, 10 mM sodium tartrate pH 3.5, 3.3 nM enzyme
purified protein [1] = substrate: CCn1c(=NN=c2sc3cc(S(=O)(=O)O)ccc3n2CC)sc2cc(S(=O)(=O)O)ccc21
purified protein [2] = substrate: COc1cccc(OC)c1O
purified protein [3] = substrate: Nc1c(S(=O)(=O)O)cc(Nc2cccc(S(=O)(=O)CCOS(=O)(=O)O)c2)c2c1C(=O)c1ccccc1C2=O

Row | Protein | Km (purified protein [1]) [µM] | kcat (purified protein [1]) [s ^-1] | kcat/Km (purified protein [1]) | Km (purified protein [2]) [µM] | kcat (purified protein [2]) [s ^-1] | kcat/Km (purified protein [2]) | Km (purified protein [3]) [µM] | kcat (purified protein [3]) [s ^-1] | kcat/Km (purified protein [3])
1 | B1 | 752.00 ± 207.21 | 316.16 ± 61.61 | (4.20 ± 2.90) × 10^5 M^-1 s^-1 | – | – | – | – | – | –
2 | B2 | – | – | – | 953.00 ± 102.70 | 56.25 ± 2.81 | (5.90 ± 2.74) × 10^4 M^-1 s^-1 | – | – | –
3 | B3 | – | – | – | 42.64 ± 6.32 | 54.29 ± 1.08 | (1.27 ± 0.17) × 10^6 M^-1 s^-1 | – | – | –
4 | B4 | 67.29 ± 13.05 | 790 ± 56.06 | (1.17 ± 0.43) × 10^7 M^-1 s^-1 | 8.98 ± 1.02 | 58.99 ± 0.45 | (6.57 ± 0.44) × 10^6 M^-1 s^-1 | 139.87 ± 42.85 | 187.90 ± 37.00 | (1.34 ± 0.86) × 10^6 M^-1 s^-1
5 | B5 | 275.07 ± 77.79 | 88.38 ± 15.66 | (3.21 ± 2.01) × 10^5 M^-1 s^-1 | – | – | – | – | – | –
6 | B6 | 71.87 ± 20.86 | 384.85 ± 42.27 | (5.35 ± 2.02) × 10^6 M^-1 s^-1 | 229.05 ± 30.79 | 71.21 ± 2.60 | (3.11 ± 0.84) × 10^5 M^-1 s^-1 | 27.60 ± 7.70 | 46.11 ± 5.91 | (1.67 ± 0.76) × 10^6 M^-1 s^-1
7 | B7 | 19.47 ± 4.41 | 52.78 ± 2.86 | (2.71 ± 0.65) × 10^6 M^-1 s^-1 | 1082.00 ± 283.00 | 18.28 ± 2.30 | (1.69 ± 0.81) × 10^4 M^-1 s^-1 | – | – | –
8 | B8 | – | – | – | 172.71 ± 38.31 | 69.65 ± 3.46 | (4.03 ± 0.90) × 10^5 M^-1 s^-1 | – | – | –
